Measured values as given in patent publication US20180057581A1 (MorphoSys, published 2018).

T1: human M-CSF (human, UniProt P09603 33-255, limits assumed)
T1 construct: also called M-CSF (human); CSF-1
T1 sequence: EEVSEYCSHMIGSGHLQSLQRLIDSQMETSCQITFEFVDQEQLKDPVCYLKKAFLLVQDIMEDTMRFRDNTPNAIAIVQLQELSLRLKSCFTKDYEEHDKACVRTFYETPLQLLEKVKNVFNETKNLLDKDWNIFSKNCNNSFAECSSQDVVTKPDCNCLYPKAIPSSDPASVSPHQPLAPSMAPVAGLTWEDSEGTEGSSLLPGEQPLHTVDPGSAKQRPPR

T2: Recombinant cynomolgus monkey sgM-CSF (cynomolgus (Macaca fascicularis), UniProt P09603 33-255 (human entry), limits assumed)
T2 construct: used also where only 'cynomolgus M-CSF' is printed (ELISA result, SET); also called cynomolgus sgM-CSF; cyno sgM-CSF
T2 chain: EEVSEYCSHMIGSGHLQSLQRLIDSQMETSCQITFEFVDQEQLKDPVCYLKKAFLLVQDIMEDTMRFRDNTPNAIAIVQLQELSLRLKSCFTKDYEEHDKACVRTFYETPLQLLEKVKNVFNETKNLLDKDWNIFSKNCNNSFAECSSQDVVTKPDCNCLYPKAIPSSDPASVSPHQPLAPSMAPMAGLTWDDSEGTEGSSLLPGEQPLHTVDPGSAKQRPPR


How the values were obtained:
human M-CSF [1] = biological target: T1, human M-CSF; assay: soluble equilibrium titration (SET), Fab, monovalent
Procedure: (§1) The monovalent affinity of the antibodies of the present disclosure was determined by soluble equilibrium titration (Haenel et al. (2005) Anal Biochem 339, 182-4).

[2] = biological target: T2, Recombinant cynomolgus monkey sgM-CSF; assay: as above
Procedure: as §1

human M-CSF [3] = biological target: T1, human M-CSF; assay: ELISA
Procedure: (§2) BSA was used as a negative control substrate.
(§3) After blocking of plates with 5% skim milk powder in PBS, Fab-containing E. coli lysates, IgG-containing cell culture supernatants or purified IgG or Fab proteins were added. Binding of Fabs or IgGs was detected by F(ab)₂ specific goat anti-human IgG conjugated to alkaline phosphatase (Dianova Cat# 109-055-097; diluted 1:5000) using Attophos fluorescence substrate (Roche, #11681982001). Fluorescence emission at 535 nm was recorded with excitation at 430 nm.

[4] = biological target: T2, Recombinant cynomolgus monkey sgM-CSF; assay: ELISA
Procedure: as §2, §3

Binder	Kd (human M-CSF [1])	Kd [2]	ELISA fluorescence units (human M-CSF [3])	ELISA fluorescence units [4]
HeRX1-10G1, Fab (Fab, V domains shown, Prior art antibody) VH: QVQLQESGPGLVKPSQTLSLTCTVSDYSITSDYAWNWIRQFPGKGLEWMGYISYSGSTSYNPSLKSRITISRDTSKNQFSLQLNSVTAADTAVYYCASFDYAHAMDYWGQGTTVTVSS VL: DIVLTQSPAFLSVTPGEKVTFTCQASQSIGTSIHWYQQKTDQAPKLLIKYASESISGIPSRFSGSGSGTDFTLTISSVEAEDAADYYCQQINSWPTTFGGGTKLEIKR	> 1000 pM			
Blanche, Fab (Fab, V domains shown) VH: QVQLQQSGPGLVKPSQTLSLTCAISGDSVSSNSAAWNWIRQSPSRGLEWLGRTYYRSKWKHEYAMSVKSRITINPDTSKNQFSLQLNSVTPEDTAVYYCARDRYYYSAFDYWGQGTLVTVSS VL: DIALTQPASVSGSPGQSITISCTGTSSDVGGYNSVSWYQQHPGKAPKLMIYAVSNRPSGVSNRFSGSKSGNTASLTISGLQAEDEADYYCASYDERFTRVFGGGTKLTVLG	96 pM	130 pM		
Blanche (format not stated) (antibody, V domains shown) VH: QVQLQQSGPGLVKPSQTLSLTCAISGDSVSSNSAAWNWIRQSPSRGLEWLGRTYYRSKWKHEYAMSVKSRITINPDTSKNQFSLQLNSVTPEDTAVYYCARDRYYYSAFDYWGQGTLVTVSS VL: DIALTQPASVSGSPGQSITISCTGTSSDVGGYNSVSWYQQHPGKAPKLMIYAVSNRPSGVSNRFSGSKSGNTASLTISGLQAEDEADYYCASYDERFTRVFGGGTKLTVLG			> 35000 units	> 35000 units
Maelle, Fab (Fab, V domains shown) VH: QVQLQQSGPGLVKPSQTLSLTCAISGESVSTSSAAWNWIRQSPSRGLEWLGRTYYRSKWKKEYAQSVKSRITINPDTSKNQFSLQLNSVTPEDTAVYYCARDRYYYSAFDYWGQGTLVTVSS VL: QSALTQPASVSGSPGQSITISCTGTSSDVGGYNSVSWYQQHPGKAPKLIIYAVSNRPSGVSNRFSGSKSGNTASLTISGLQAEDEADYYCASYDERFTRVFGGGTKLTVLG	13 pM	27 pM		
Meriem (format not stated) (antibody, V domains shown) VH: QVQLQQSGPGLVKPSQTLSLTCAISGDSVSTSSAAWNWIRQSPSRGLEWLGRTYYRSKWKKEYAQSVKSRITINPDTSKNQFSLQLNSVTPEDTAVYYCARDRYYYSAFDYWGQGTLVTVSS VL: QSALTQPASVSGSPGQSITISCTGTSSDVGGYNSVSWYQQHPGKAPKLIIYAVSNRPSGVSNRFSGSKSGNTASLTISGLQAEDEADYYCASYDERFTRVFGGGTKLTVLG			> 35000 units	> 35000 units
Laurine (format not stated) (antibody, V domains shown) VH: QVQLQQSGPGLVKPSQTLSLTCAISGDSVSSNSAAWNWIRQSPSRGLEWLGRTYYRSKWKKEYAQSVKSRITINPDTSKNQFSLQLNSVTPEDTAVYYCARDRYYYSAFDYWGQGTLVTVSS VL: DIALTQPASVSGSPGQSITISCTGTSSDVGGYNSVSWYQQHPGKAPKLMIYAVSNRPSGVSNRFSGSKSGNTASLTISGLQAEDEADYYCASYDERFTRVFGGGTKLTVLG			> 35000 units	> 35000 units
Maelle (format not stated) (antibody, V domains shown) VH: QVQLQQSGPGLVKPSQTLSLTCAISGESVSTSSAAWNWIRQSPSRGLEWLGRTYYRSKWKKEYAQSVKSRITINPDTSKNQFSLQLNSVTPEDTAVYYCARDRYYYSAFDYWGQGTLVTVSS VL: QSALTQPASVSGSPGQSITISCTGTSSDVGGYNSVSWYQQHPGKAPKLIIYAVSNRPSGVSNRFSGSKSGNTASLTISGLQAEDEADYYCASYDERFTRVFGGGTKLTVLG			> 35000 units	> 35000 units
Caline, Fab (Fab, V domains shown) VH: QVQLQQSGPGLVKPSQTLSLTCAISGDSVSSNSAAWNWIRQSPSRGLEWLGRTYYRSKWKHEYAMSVKSRITINPDTSKNQFSLQLNSVTPEDTAVYYCARDRYYYSAFDYWGQGTLVTVSS VL: QSALTQPASVSGSPGQSITISCTGTSSDVGGYNSVSWYQQHPGKAPKLMIYAVSNRPSGVSNRFSGSKSGNTASLTISGLQAEDEADYYCASYDERFTRVFGGGTKLTVLG	14 pM	16 pM		
Laurine, Fab (Fab, V domains shown) VH: QVQLQQSGPGLVKPSQTLSLTCAISGDSVSSNSAAWNWIRQSPSRGLEWLGRTYYRSKWKKEYAQSVKSRITINPDTSKNQFSLQLNSVTPEDTAVYYCARDRYYYSAFDYWGQGTLVTVSS VL: DIALTQPASVSGSPGQSITISCTGTSSDVGGYNSVSWYQQHPGKAPKLMIYAVSNRPSGVSNRFSGSKSGNTASLTISGLQAEDEADYYCASYDERFTRVFGGGTKLTVLG	96 pM	150 pM		
Camille, Fab (Fab, V domains shown) VH: QVQLQQSGPGLVKPSQTLSLTCAISGESVSTSSAAWNWIRQSPSRGLEWLGRTYYRSKWKHEYAVSVKSRITINPDTSKNQFSLQLNSVTPEDTAVYYCARDRYYYSAFDYWGQGTLVTVSS VL: QSALTQPASVSGSPGQSITISCTGTSSDVGGYNSVSWYQQHPGKAPKLLIYAVSNRPSGVSNRFSGSKSGNTASLTISGLQAEDEADYYCASYDERFTRVFGGGTKLTVLG	18 pM	25 pM		
Satine, Fab (Fab, V domains shown) VH: EVQLVESGGGLVKPGGSLRLSCAASGFTFSIYAMSWVRQAPGKGLEWVGRIKSNADGGTTEYAAPVKGRFTISRDDSKNTLYLQMNSLKTEDTAVYYCARMRYYSDLYFDPWGQGTLVTVSS VL: SYELTQPPSVSVSPGQTASITCSGDKLGQKYVSWYQQKPGQSPVLVISQDRKRPSGIPERFSGSNSGNTATLTISGTQAEDEADYYCQTWTHLQWVFGGGTKLTVLG	< 2 pM			
Satine (format not stated) (antibody, V domains shown) VH: EVQLVESGGGLVKPGGSLRLSCAASGFTFSIYAMSWVRQAPGKGLEWVGRIKSNADGGTTEYAAPVKGRFTISRDDSKNTLYLQMNSLKTEDTAVYYCARMRYYSDLYFDPWGQGTLVTVSS VL: SYELTQPPSVSVSPGQTASITCSGDKLGQKYVSWYQQKPGQSPVLVISQDRKRPSGIPERFSGSNSGNTATLTISGTQAEDEADYYCQTWTHLQWVFGGGTKLTVLG			> 35000 units	> 35000 units
Romaine (format not stated) (antibody, V domains shown) VH: EVQLVESGGGLVKPGGSLRLSCAASGFTFSIYAMSWVRQAPGKGLEWVGRIKSNADGGTTEYAAPVKGRFTISRDDSKNTLYLQMNSLKTEDTAVYYCARMRYYSDLYFDPWGQGTLVTVSS VL: DIELTQPPSVSVSPGQTASITCSGDAIGSKYVHWYQQKPGQAPVLVISKDNKRPSGIPERFSGSNSGNTATLTISGTQAEDEADYYCQTATVSSYWWVFGGGTKLTVLG			> 35000 units	> 35000 units
Servane (format not stated) (antibody, V domains shown) VH: EVQLVESGGGLVKPGGSLRLSCAASGFTFSTYAISWVRQAPGKGLEWVGFIKSKHNSGTTEYAAPVKGRFTISRDDSKNTLYLQMNSLKTEDTAVYYCARMRYYSDLYFDPWGQGTLVTVSS VL: SYELTQPPSVSVSPGQTASITCSGDKLGQKYVSWYQQKPGQSPVLVISQDRKRPSGIPERFSGSNSGNTATLTISGTQAEDEADYYCQTWTHLQWVFGGGTKLTVLG			> 35000 units	> 35000 units
8.10.3F, Fab (Fab, V domains shown, Prior art antibody; also called 8.10.F3) VH: EVQLVESGGGLVQPGGSLRLSCAASGFTFSSFSMTWVRQAPGKGLEWVSYISSRSSTISYADSVKGRFTISRDNAKNSLYLQMNSLRDEDTAVYYCARDPLLAGATFFDYWGQGTLVTVSS VL: not shown	38 pM			
